Results: doi:10.1101/2024.08.06.606761 (bioRxiv, 2024)

Key:
Assay in all cases: fluorescence polarisation
[1] = target: talin-1 (TLN1) PTB domain, tag cleaved (FP) (human)
[2] = target: SARS-CoV-2 NSP3 ADRP domain, tag cleaved (FP) (SARS-CoV-2)
[3] = target: SARS-CoV-2 NSP3 UBl1 domain, tag cleaved (FP) (SARS-CoV-2)
[4] = target: SARS-CoV-2 NSP3 SUD-M domain, tag cleaved (FP) (SARS-CoV-2)
[5] = target: SARS-CoV-2 non-structural protein (NSP) 9, tag cleaved (FP) (SARS-CoV-2)
[6] = target: G3BP1 NTF2-like domain, tag cleaved (FP) (human, UniProt Q13283 11-133)
G3BP1 NTF2-like domain, tag cleaved (FP), sequence (Q13283 11-133): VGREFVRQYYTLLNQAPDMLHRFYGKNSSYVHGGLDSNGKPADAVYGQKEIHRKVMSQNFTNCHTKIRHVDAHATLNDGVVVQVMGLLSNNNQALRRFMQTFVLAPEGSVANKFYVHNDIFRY

talin-1 (TLN1) PTB domain, tag cleaved (FP) (human), sequence (Q9Y490 whole entry, the tested form may be a part): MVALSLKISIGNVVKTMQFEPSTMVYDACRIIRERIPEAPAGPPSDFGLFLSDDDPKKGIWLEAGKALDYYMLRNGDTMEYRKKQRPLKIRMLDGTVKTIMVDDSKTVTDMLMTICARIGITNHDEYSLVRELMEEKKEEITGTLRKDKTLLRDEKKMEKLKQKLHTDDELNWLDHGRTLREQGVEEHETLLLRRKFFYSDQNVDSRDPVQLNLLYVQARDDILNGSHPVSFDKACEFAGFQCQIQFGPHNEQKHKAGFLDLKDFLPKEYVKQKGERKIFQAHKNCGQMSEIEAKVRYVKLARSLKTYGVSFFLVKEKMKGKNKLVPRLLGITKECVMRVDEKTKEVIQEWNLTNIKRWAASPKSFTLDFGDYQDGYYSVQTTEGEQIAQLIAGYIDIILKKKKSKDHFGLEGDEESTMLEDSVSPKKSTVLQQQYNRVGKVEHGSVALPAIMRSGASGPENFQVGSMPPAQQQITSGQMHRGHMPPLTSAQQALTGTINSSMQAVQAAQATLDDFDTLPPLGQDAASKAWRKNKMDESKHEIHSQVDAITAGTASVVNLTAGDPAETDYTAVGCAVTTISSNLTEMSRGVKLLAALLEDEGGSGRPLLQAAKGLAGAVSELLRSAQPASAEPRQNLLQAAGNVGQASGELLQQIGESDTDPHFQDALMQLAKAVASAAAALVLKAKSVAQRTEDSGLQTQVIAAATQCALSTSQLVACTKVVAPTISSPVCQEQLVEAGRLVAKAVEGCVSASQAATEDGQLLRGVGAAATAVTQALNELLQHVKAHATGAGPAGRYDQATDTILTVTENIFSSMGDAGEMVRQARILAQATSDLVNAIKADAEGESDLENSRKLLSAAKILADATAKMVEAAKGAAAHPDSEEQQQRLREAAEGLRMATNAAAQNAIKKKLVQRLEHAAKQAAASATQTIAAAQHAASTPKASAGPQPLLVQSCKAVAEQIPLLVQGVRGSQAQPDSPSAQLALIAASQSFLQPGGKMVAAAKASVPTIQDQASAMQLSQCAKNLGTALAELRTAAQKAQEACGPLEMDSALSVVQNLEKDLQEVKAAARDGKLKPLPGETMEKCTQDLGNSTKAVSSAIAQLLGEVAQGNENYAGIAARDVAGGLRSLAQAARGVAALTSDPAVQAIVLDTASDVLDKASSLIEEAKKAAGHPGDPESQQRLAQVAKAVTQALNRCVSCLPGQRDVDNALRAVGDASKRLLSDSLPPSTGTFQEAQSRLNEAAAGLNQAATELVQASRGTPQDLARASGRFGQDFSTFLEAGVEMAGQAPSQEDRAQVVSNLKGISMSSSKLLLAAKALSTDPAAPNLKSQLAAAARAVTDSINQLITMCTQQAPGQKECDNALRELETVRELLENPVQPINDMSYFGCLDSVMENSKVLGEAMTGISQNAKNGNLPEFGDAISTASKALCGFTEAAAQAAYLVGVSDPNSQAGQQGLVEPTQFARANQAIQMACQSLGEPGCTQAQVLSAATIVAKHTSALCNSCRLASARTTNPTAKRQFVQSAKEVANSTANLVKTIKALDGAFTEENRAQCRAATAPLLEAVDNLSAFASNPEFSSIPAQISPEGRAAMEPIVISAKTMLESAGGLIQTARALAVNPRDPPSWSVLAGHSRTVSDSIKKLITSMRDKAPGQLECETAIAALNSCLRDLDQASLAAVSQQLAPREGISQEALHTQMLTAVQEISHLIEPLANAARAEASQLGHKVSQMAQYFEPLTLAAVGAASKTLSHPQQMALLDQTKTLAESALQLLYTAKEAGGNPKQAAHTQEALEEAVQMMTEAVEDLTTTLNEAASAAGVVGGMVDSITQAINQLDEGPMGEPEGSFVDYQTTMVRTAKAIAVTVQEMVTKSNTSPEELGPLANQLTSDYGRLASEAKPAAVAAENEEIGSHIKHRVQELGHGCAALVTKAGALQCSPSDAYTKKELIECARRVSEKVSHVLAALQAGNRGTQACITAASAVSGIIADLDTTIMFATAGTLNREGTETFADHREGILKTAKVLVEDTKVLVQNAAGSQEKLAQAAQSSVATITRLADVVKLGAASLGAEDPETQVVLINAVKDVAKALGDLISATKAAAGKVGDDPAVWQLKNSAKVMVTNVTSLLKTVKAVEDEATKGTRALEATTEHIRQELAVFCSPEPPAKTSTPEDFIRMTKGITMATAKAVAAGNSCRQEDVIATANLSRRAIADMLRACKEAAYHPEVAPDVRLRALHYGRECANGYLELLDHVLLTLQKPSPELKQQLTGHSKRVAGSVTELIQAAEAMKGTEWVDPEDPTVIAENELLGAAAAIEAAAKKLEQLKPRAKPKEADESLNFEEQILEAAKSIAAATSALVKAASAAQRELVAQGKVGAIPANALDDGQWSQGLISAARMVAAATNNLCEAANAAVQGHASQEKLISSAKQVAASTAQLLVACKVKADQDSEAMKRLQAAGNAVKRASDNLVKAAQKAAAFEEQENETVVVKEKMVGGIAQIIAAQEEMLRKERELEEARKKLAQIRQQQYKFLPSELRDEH

“TPTE2 92-107 F97Y peptide (from UniProt Q6XPS3 92-107)” gave a Kd [1] of 150 µM.

With “wild-type MBOAT1 16-31 peptide (from UniProt Q6ZNC8 16-31)” the Kd [2] was 49 µM.

In the case of “TPTE2 92-107 F97W peptide (from UniProt Q6XPS3 92-107)”, the Kd [1] is reported as 0.1 µM.

wild-type TPTE2 92-107 peptide showed a Kd [1] of 4.9 µM.

Work on “wild-type NCOA2 1073-1088 peptide (from UniProt Q15596 1073-1088)” yielded a Kd [3] of 39 µM.

“TPTE2 92-107 Y103W peptide (from UniProt Q6XPS3 92-107)” was tested, and the Kd [1] was 22 µM.

With “TPTE2 92-107 S100N peptide (from UniProt Q6XPS3 92-107)” the Kd [1] was 1.7 µM.

Molecule “TPTE2 92-107 I104A peptide (from UniProt Q6XPS3 92-107)” has a Kd [1] of 18 µM.

B1: wild-type PRDM14 peptide (FP) (peptide)
chain: QFTEEDLHFVLYGVTPSL
modifications: not checked
Molecule B1 has a Kd [4] of 74 µM.

B2: wild-type NOTCH4 peptide (FP) (peptide)
chain: QGAWLGAPEPWEPL
modifications: not checked
Work on B2 yielded a Kd [5] of 72 µM.

B3: wildtype SARS-CoV-2 N 12-26 peptide (peptide)
peptide: APRITFGGPSDSTGS
Work on B3 yielded a Kd [6] of 2300 nM.
